Laboratory results: the supplement of paper PMC9170038

System: K4 kissing-loop RNA reporter
Assay: apparent KD of K4 kissing-loop reporter; higher = weaker reporter binding
Conditions: Eterna round: R107
Experimental: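 RNA-MaP round R107: designed RNA switches with theophylline, tryptophan, arginine or FMN aptamers are transcribed on-chip within common flanks. They are titrated with a labelled K4 kissing-loop RNA reporter in RNA-MaP buffer (100 mM Tris pH 7.5, 80 mM KCl, 4 mM MgCl2), without ligand or with the indicated ligand. Median apparent KD per design.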

[1] = input ligand: theophylline 20 uM
[2] = input ligand: tryptophan 2.4 mM
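Also: bound reporter read as fluorescence of individual clusters on recovered sequencing chips by microscopy, with normalized cluster intensities fitted with a binding model.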

For “AAGGUAAGUGCAUACAAAGUGAUGUUUUGUCGAGGACCGGUACGGCCGCCACUCGCCCAGUUAAGUGACCGACGUCAACGAAUAA [theeternabot_exclusion_KL_Trp_A_21]”, the “apparent KD of K4 kissing-loop reporter” value (input ligand: FMN 200 uM) was 606 nM, the “apparent KD of K4 kissing-loop reporter” value (input ligand: arginine 13.2 mM) was 552 nM and the “apparent KD of K4 kissing-loop reporter” value (input ligand: none) was 582 nM. For the same sequence, the “apparent KD of K4 kissing-loop reporter” value [1] was 502 nM and the “apparent KD of K4 kissing-loop reporter” value [2] was 498 nM.

For “AAGUGAUGUUGUAGUGAUGUUGUGAUGUUGCAGGAUAUAUAGUGAUGUAGAAGGGUAAGUACUUAUUUUUUUUUUGAGUUAUGUU [crrczrmullin]”, the “apparent KD of K4 kissing-loop reporter” value (input ligand: FMN 200 uM) was 85.5 nM, the “apparent KD of K4 kissing-loop reporter” value (input ligand: arginine 13.2 mM) was 33 nM and the “apparent KD of K4 kissing-loop reporter” value (input ligand: none) was 62.8 nM. The “apparent KD of K4 kissing-loop reporter” value [1] was 45.9 nM and the “apparent KD of K4 kissing-loop reporter” value [2] was 65.4 nM.

For “CGAUUCAUGGCGGCCGCCACUCGCGAAGCUCCCGUUACGAUGUCCGCAACAGUGAUGUUGUUGCCGAGGACCGGGCCGAGAUCCA [theeternabot_exclusion_KL_Trp_B_31]”, the “apparent KD of K4 kissing-loop reporter” value (input ligand: FMN 200 uM) was 283 nM, the “apparent KD of K4 kissing-loop reporter” value (input ligand: arginine 13.2 mM) was 173 nM and the “apparent KD of K4 kissing-loop reporter” value (input ligand: none) was 228 nM. For the same sequence, the “apparent KD of K4 kissing-loop reporter” value [1] was 211 nM and the “apparent KD of K4 kissing-loop reporter” value [2] was 218 nM.

With “CCUAUCUCAUACGAUACCAGUGAUUAACCAGUGAUGUUGGAAUAACCAAGGAAUAUUUAUCACCCUUGGCAGCGUAUGGGAUAGG [Ex Theophylline B K4 28]” the “apparent KD of K4 kissing-loop reporter” value (input ligand: FMN 200 uM) was 99.8 nM, the “apparent KD of K4 kissing-loop reporter” value (input ligand: arginine 13.2 mM) was 54.4 nM and the “apparent KD of K4 kissing-loop reporter” value (input ligand: none) was 83.3 nM. For the same sequence, the “apparent KD of K4 kissing-loop reporter” value [1] was 115 nM and the “apparent KD of K4 kissing-loop reporter” value [2] was 69.4 nM.

“AAGCAGUCACGCGAAGCCAUCGAAGAUGGUCGAGGACCGGUACGGCCGCCACUCGGAGUGAUGUUCCGAAGACUGCAAAAUAAAA” was tested, and the “apparent KD of K4 kissing-loop reporter” value (input ligand: FMN 200 uM) was 326 nM, the “apparent KD of K4 kissing-loop reporter” value (input ligand: arginine 13.2 mM) was 270 nM and the “apparent KD of K4 kissing-loop reporter” value (input ligand: none) was 333 nM. The “apparent KD of K4 kissing-loop reporter” value [1] was 314 nM and the “apparent KD of K4 kissing-loop reporter” value [2] was 341 nM.

With “CGAGUGAUGUUCGUUCGUAUAUUUGGGUGACAGGAUAUGCGGAAACGCAGAAGGGUCGCCUUCGGGUUACCCGAAUUGGCGUUUU [FMN A Model 2]” the “apparent KD of K4 kissing-loop reporter” value (input ligand: FMN 200 uM) was 444 nM, the “apparent KD of K4 kissing-loop reporter” value (input ligand: arginine 13.2 mM) was 402 nM and the “apparent KD of K4 kissing-loop reporter” value (input ligand: none) was 546 nM. The “apparent KD of K4 kissing-loop reporter” value [1] was 461 nM and the “apparent KD of K4 kissing-loop reporter” value [2] was 455 nM.

“AGGACUCUUGUGGGUACGCAUCUAGCCGAUACCAGACUUCCAUAUGUCCCUUGGCAGCGGCAGUGAUGUUGUCGUUACGCCAUCA [theeternabot_exclusion_KL_Theo_A_34]” was tested, and the “apparent KD of K4 kissing-loop reporter” value (input ligand: FMN 200 uM) was 140 nM, the “apparent KD of K4 kissing-loop reporter” value (input ligand: arginine 13.2 mM) was 133 nM and the “apparent KD of K4 kissing-loop reporter” value (input ligand: none) was 147 nM. For the same sequence, the “apparent KD of K4 kissing-loop reporter” value [1] was 212 nM and the “apparent KD of K4 kissing-loop reporter” value [2] was 131 nM.

With “ACAGGAAUCUUUGAUACCAGAACCCGUCUACCUCCAUCCUUGGAGCAUAGUGAUGUUGUGUUCCCUUGGCAGCAAUAGGGCACAU [theeternabot_exclusion_KL_Theo_B_34]” the “apparent KD of K4 kissing-loop reporter” value (input ligand: FMN 200 uM) was 711 nM, the “apparent KD of K4 kissing-loop reporter” value (input ligand: arginine 13.2 mM) was 498 nM and the “apparent KD of K4 kissing-loop reporter” value (input ligand: none) was 632 nM. For the same sequence, the “apparent KD of K4 kissing-loop reporter” value [1] was 597 nM and the “apparent KD of K4 kissing-loop reporter” value [2] was 644 nM.

With “UGCAUGUGAAACAUGUAGGUGCUAGGUGAAGGAGCGAUCGAAAGAUCAGGUAGGUCGCACCUUCCUGAGUGAUGUUCAGGUAAUA [KL-SSArg-A2]” the “apparent KD of K4 kissing-loop reporter” value (input ligand: FMN 200 uM) was 60.3 nM, the “apparent KD of K4 kissing-loop reporter” value (input ligand: arginine 13.2 mM) was 31.7 nM and the “apparent KD of K4 kissing-loop reporter” value (input ligand: none) was 47.7 nM. For the same sequence, the “apparent KD of K4 kissing-loop reporter” value [1] was 55.2 nM and the “apparent KD of K4 kissing-loop reporter” value [2] was 46 nM.

With “AGUAUGGCAACAUUGCAAGUAGCCGUACCACGAGGACCGGUACGGCCGCCACUCGAUAACUUGCAGUGAUGUUGCAAGUAAGAAU [(T)''-(K)'-(T)'-(T1)-(T2)-(K1)-(K2)_Design4]” the “apparent KD of K4 kissing-loop reporter” value (input ligand: FMN 200 uM) was 193 nM, the “apparent KD of K4 kissing-loop reporter” value (input ligand: arginine 13.2 mM) was 206 nM and the “apparent KD of K4 kissing-loop reporter” value (input ligand: none) was 227 nM. For the same sequence, the “apparent KD of K4 kissing-loop reporter” value [1] was 268 nM and the “apparent KD of K4 kissing-loop reporter” value [2] was 199 nM.

For “CUAGGCAACACAGGAUAUGUCCGAGUGAUGUUCGAGCCUUUCCAUUGACGAAAUUAAUGGUGGGUGACAGAAGGGUGAGUGCUGA [Xezaqu]”, the “apparent KD of K4 kissing-loop reporter” value (input ligand: FMN 200 uM) was 354 nM, the “apparent KD of K4 kissing-loop reporter” value (input ligand: arginine 13.2 mM) was 577 nM and the “apparent KD of K4 kissing-loop reporter” value (input ligand: none) was 620 nM. The “apparent KD of K4 kissing-loop reporter” value [1] was 585 nM and the “apparent KD of K4 kissing-loop reporter” value [2] was 432 nM.

For “UAACGGCCCAGUGAUGUUGGGUGGAGGCGGCGAGGACCGGUACGGCCGCCACUCGGCGCACAGGCGGAGUGAUGUUGCGCGUAAA [Same State Tryptophan A GF 13]”, the “apparent KD of K4 kissing-loop reporter” value (input ligand: FMN 200 uM) was 242 nM, the “apparent KD of K4 kissing-loop reporter” value (input ligand: arginine 13.2 mM) was 164 nM and the “apparent KD of K4 kissing-loop reporter” value (input ligand: none) was 319 nM. The “apparent KD of K4 kissing-loop reporter” value [1] was 182 nM and the “apparent KD of K4 kissing-loop reporter” value [2] was 215 nM.

“AAGUAAUUAAUAAUUUAUAUAAGUUAAACAGAGGAUAUGCAUUAUUGCAGAAGGCUGAAUGCAGUGAUGUUGCAAUGAUUAUUUA [JR_SSFMNA_Sub001]” was tested, and the “apparent KD of K4 kissing-loop reporter” value (input ligand: FMN 200 uM) was 18.9 nM, the “apparent KD of K4 kissing-loop reporter” value (input ligand: arginine 13.2 mM) was 84.7 nM and the “apparent KD of K4 kissing-loop reporter” value (input ligand: none) was 58.3 nM. For the same sequence, the “apparent KD of K4 kissing-loop reporter” value [1] was 116 nM and the “apparent KD of K4 kissing-loop reporter” value [2] was 60.8 nM.

For “UGUCAUUGGUCUGAUACCAGUUGAUAAACUGGAGUGAUGUUCCAAGACGAGAAACUCGACAACCCUUGGCAGCAGACCGAUGACU [TheoBS 16 #SwitchBubble 13 #StaticStem]”, the “apparent KD of K4 kissing-loop reporter” value (input ligand: FMN 200 uM) was 440 nM, the “apparent KD of K4 kissing-loop reporter” value (input ligand: arginine 13.2 mM) was 295 nM and the “apparent KD of K4 kissing-loop reporter” value (input ligand: none) was 374 nM. For the same sequence, the “apparent KD of K4 kissing-loop reporter” value [1] was 772 nM and the “apparent KD of K4 kissing-loop reporter” value [2] was 430 nM.

For “UGUCAUUGGUCGGCCGCCACUCCAUAAUGAGUGAUGUUCUAAAAGACGGAUCGAAAGAUCUGUCGGAGGACCGGGACCGAUGACU [FiskerMod 5 - Jieux - Same State - Tryptophan B]”, the “apparent KD of K4 kissing-loop reporter” value (input ligand: FMN 200 uM) was 566 nM, the “apparent KD of K4 kissing-loop reporter” value (input ligand: arginine 13.2 mM) was 456 nM and the “apparent KD of K4 kissing-loop reporter” value (input ligand: none) was 680 nM. The “apparent KD of K4 kissing-loop reporter” value [1] was 799 nM and the “apparent KD of K4 kissing-loop reporter” value [2] was 267 nM.

For “GGUUAAUAGGAGGAUACCAGUACGAAUAAAGUACAUUAAUAGUAGAGUGAUGUUCUAAAGUACCCUUGGCAGCUUAGAGUUAGUU [#19 K4 Theophylline B Exclusion]”, the “apparent KD of K4 kissing-loop reporter” value (input ligand: FMN 200 uM) was 128 nM, the “apparent KD of K4 kissing-loop reporter” value (input ligand: arginine 13.2 mM) was 216 nM and the “apparent KD of K4 kissing-loop reporter” value (input ligand: none) was 169 nM. The “apparent KD of K4 kissing-loop reporter” value [1] was 257 nM and the “apparent KD of K4 kissing-loop reporter” value [2] was 102 nM.
